Reference: patent US20240092847A1, “FUNCTIONAL NUCLEIC ACID MOLECULE AND METHOD” (The University Court of The University of Edinburgh, priority 2021, published 2024)

B1: SSE-5: synthetic super-enhancer ID2706_ID3547_ID3548_ID3146, SEQ ID NO: 68 (nucleic acid)
DNA: CCAATGCCAAAGCAGTTTACATTTTACAGATGCCATGGCAACCGTCAGGAAGTTACCCTGTATGGTCTAAGAGGGGGAGGAACCCTCAGTTCCGGGAATTGCCCGCCCCTTTCCCGGAAACTCATGAATAATCCACCCCGTTCCCCCTTAACAAAAGCCACCTCCTCCCTCCTGAAAGGCACCATTGGTCACCAAAACAAGTCCCCTTTGTCCTCCACCGCAGCTGGAGCCTGGGCCTTCCATCTCCTGGGGGCCAATAAAACCCCAGATCAGCCAATCCTCCCTCCCTGGCTCTGTCATCCAAACACTCCCCTGCAACAGATGTACACACAGAGCCCATTGTTTTCTCTAGAAATGTAAACTGCACGTCACAGTTACTCCATACACACCACAAACAGACTCCCTTTGTTCTCAGGATATGTGTTGACACAAGAATATGTCATCCTCTCAGCTCCAGACTGAAAGAGATGGGTGTGTGGGAGTGGGGGAAGCTGAGCTCCAGGCAGACAGCACAGAGCCGCCTTGTCCAACCCAGCCAGGTGCCATGGCAACCAACAAAGGCCCCATTGTCCCGTGTCTGCTGGGCCTTCCTGAGGCTCTGGGGTCAGAGTCCCGGTT
B2: ID1101: enhancer fragment, SEQ ID NO: 4 (nucleic acid)
DNA: GTGAGTGTGACTCACATGCTGGCATCAGAGCCCCTCTTAGAGCTTAGAACACTGGGCCTCTGTCAGGCAAAGAAAAGGAGTCCCTATGAATAGCCATCTCCACAAATAGCAGTTACTGTCACTTCTTAAAAGACACAAGCATGGCTGGAGACCGGCACTG
B3: SSE-7: synthetic super-enhancer ID4310_ID4428_ID0785_ID3836, SEQ ID NO: 70 (nucleic acid)
DNA: TTGTCCTGCCTTTGAGAACACTGGAAGGGCACTGAAGGCTGACCAGCATGCACCTCACCCCACCTCCTCTCTGTCTCATCCTCAGCCATCTAAGCGGGAGACTCATCAGGCTTAAATTCTCATTCTTATCCAAGATTCTTCTGCTTCAAATGAGTCTAAATGGAGATCCTCCCATAAAGGGAGTTCTGTTTGGGCTTCCCTTGGAAGTCCATTGAAAGCGTTTCACATTTCAATGCTTCTTTACATTCTCCTCTAGAATGAATCTGGAAGGGCCATTTCATTCCAGCCCTATCAGATTTACTACTTCCTCCTGTAAGAATGAACTGGGCCCAGCTGGGCATTTGCATCAAAGTGCCTCACCAGAGTTCCCAGCTGCTCTGGCAGAGTGCCCAGGCTTGCCCCAGAGCCCAAACAGAATGCTCTTTGAGATGCCTCTGGTTTTCATACCCTTCCAGGGGAGCAGTTTCCTGGCTGTGTCGTCAGATACTGTGGTTTACGCTGTTCCGGAGTCTGGAGGTCTGTGTGCCTTTGATCTCTTTCCCAACTAATTTGCACAGCTGCTGTGGAGGCCCTCATGAATGACCTCTTTCTTTCCTTTCT

Assays:
[1] = test system: GSC7 cells; experiment: Nano-Glo Dual-Luciferase Reporter (Nanoglo DLR) enhancer assay in GSC7; format: cell-based, human
Text: We chose an arrayed library format, with 160 bp enhancer fragments individually cloned into separate plasmids and arrayed in 96 well plates. These 160 bp were synthesized as a single pool of oligos, then randomly cloned into the plasmid and isolated. 20 bp×2 were needed for PCR amplification of the pool and so a library of 200 bp fragments was synthesized (Twist Biosciences). To meet our oligo synthesis strategy, ChIP-seq peaks expressed by GSCs were merged into a single oligo. This oligonucleotide pool was PCR-amplified (using limited cycles to reduce bias and ‘jackpot’ products meaning products which are easier to amplify will overtake the oligonucleotide pool) and cloned into the expression vector by an efficient Golden Gate reaction. 4579 individual plasmids were then randomly picked, isolated and plated as an arrayed plasmid DNA library on 96 well plates (×48). The bacterial colony picking and production of plasmid minipreps were supported by the Edinburgh Genome Foundry (S. Rosser). This library was then screened using the optimised Nanoglo DLR assay (Nano-Glo Dual-Luciferase Reporter Assay, Promega) in 384 well format. Each plate was transiently transfected together with PGK-FFLuc in a 1:10 ratio into GSC7 cells. 2 days later a Nanoglo DLR assay was performed and assayed on a plate reader.
Cells were seeded in 384 well plates using a multidrop and transfected the following day using the CyBio Felix. Two days later the experiment was terminated with a Nanoglo DLR assay and all hits with a fold change to mCMV greater than 10 were Sanger sequenced and mapped back to the genome.
(§1) Cells were seeded at the required density. The following day the transfection was carried out. For this the Plus reagent and Lipofectamine LTX (Life Technologies, 15338030) were each diluted in half the volume of Opti-MEM I Reduced-Serum Medium (further referred to as Optimem) (Life Technologies, 31985062). Following this step, the Plus reagent/Optimem premix was added to all DNA samples followed by the Lipofectamine LTX/Optimem premix. The transfection mix was incubated for 5 min at room temperature and then carefully dropped on the cells. Generally, no media change was carried out. Cells were analysed two days following transfection.
This assay consists of two steps. […] First, the Firefly Luciferase activity is measured which allows to normalise to transfection efficiency. In a second step, the activity of Nanoluc is determined which is the readout of the plasmid of interest. […] 20 μl cell lysate in 96 well format or 25 μl cell lysate in 384 well format was then transferred into the corresponding opaque white plate and luminescence was measured at for 0.1 s per well using the Ensight Multimode Plate Reader. […] Nanoluc activity was measured for 0.1 s per well, again using Ensight Multimode Plate Reader. […]

[2] = test system: GSC7 cells; experiment: Flow cytometry of mNGreen reporter in GSC7; format: cell-based, human
Description: as §1
For flow cytometry, cells were detached, pelleted and resuspended in an appropriate volume of flow cytometry buffer (1% BSA in PBS, v/v). Cells were stained with Draq7 (Abcam, ab109202, f.c. 0.1 μM) as a live/dead stain and analysed using the BD LSRFortessa cell analyser (4 lasers, BD Bioscience). Analysis of flow cytometry data was carried out in the FlowJo Analysis software (FlowJo, version 10.6.2).

[3] = target: T1, SOX2 (Homo sapiens, UniProt P48431); experiment: Biotinylated enhancer pull down with nuclear extract and mass spectrometry; format: binding; conditions: normalised to random sequence 599
T1 construct: endogenous in cells; host or cells: nuclear extract of GSC7 and GSC328 (patient-derived glioblastoma stem cell lines)
Description: The oligo was PCR-amplified using biotinylated primers. The PCR product was then SPRI purified to remove biotinylated primer dimers. These dsDNA fragments were incubated with nuclear extract from GSC7 and GSC328. They were then bound to streptavidin magnetic beads, washed three times and the frozen beads were sent for mass spectrometry analysis.
All the buffers were prepared the day before, passed through a […] filter (except the dialysis buffer) and left at 4° C. overnight. DTT and protease inhibitors were added just before use. The cells were scraped on the media and collected on 50 ml falcons, which were spun at 1350 rcf 5 minutes at 4° C. The pellet was resuspended in 50 ml of ice cold PBS, an aliquot was taken for cell counting, and spun again spun at 1350 rcf 5 minutes at 4° C. The pellet was then resuspended in 5 ml per 40 million cells of ice cold buffer A (10 mM HEPES pH 7.9, 1.5 mM MgCl2, 10 mM KCl, 0.5 mM DTT, protease inhibitors (Complete, Roche, 11697498001)) and incubated on ice for 10 min. The cell suspension was transferred to a glass Dounce homogenizer and dounced 40 times on ice. The cell suspension was transferred to a falcon and centrifuged at 1350 rcf for 10 min at 4° C. […] The supernatant was collected into new 1.5 ml tubes and quantified (Pierce BCA Protein Assay Kit, Thermo Scientific, Cat 23225). […]

[4] = test system: patient-derived glioblastoma cell lines; experiment: SSE-7 mCherry expression across patient-derived glioblastoma cell lines; format: cell-based, human
Text: The experiment described in Example 8 was repeated in five patient-derived glioblastoma cell lines (E17, E21, E28, E31, E34).

T1 sequence (P48431 whole entry): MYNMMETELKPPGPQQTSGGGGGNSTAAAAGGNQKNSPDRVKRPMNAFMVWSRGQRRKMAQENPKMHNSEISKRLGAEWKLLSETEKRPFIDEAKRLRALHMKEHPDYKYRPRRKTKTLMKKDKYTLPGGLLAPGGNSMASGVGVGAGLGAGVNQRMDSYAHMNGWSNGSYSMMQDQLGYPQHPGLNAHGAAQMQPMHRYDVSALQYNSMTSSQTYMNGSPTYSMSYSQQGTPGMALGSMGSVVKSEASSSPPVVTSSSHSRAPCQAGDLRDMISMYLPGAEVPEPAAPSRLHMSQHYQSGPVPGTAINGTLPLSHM

| Molecule | activity compared with full CMV by Nanoglo DLR assay [1] | activity compared with full CMV by flow cytometry [2] | SOX2 enrichment in pull down (mass spectrometry) ([3]; G7 nuclear extract) [fold] | SOX2 enrichment in pull down (mass spectrometry) ([3]; GSC328 nuclear extract) [fold] | mCherry expression ([4]; E21, E31 and E34) | mCherry expression ([4]; GSC7, E17 and E28) |
| --- | --- | --- | --- | --- | --- | --- |
| B1 | higher than CMV | higher than CMV | – | – | – | – |
| B2 | – | – | 4.4 | 23 | – | – |
| B3 | – | higher than CMV | – | – | lower frequency of expression | highly expressed and comparable to full-length CMV |
